In PMC12796476 (Nature Communications, 2025):

Tests used:
[1] = molecular target: Venus-tagged NEDD4-1 HECT domain (HECT4-1-Ven) (Homo sapiens, NEDD4, UniProt P46934); assay: FRET or BRET
[2] = molecular target: full-length NEDD4-2-Venus (Homo sapiens, NEDD4L, UniProt Q96PU5, strain); assay: FRET or BRET
[3] = molecular target: WW4-HECT4-2 domain of NEDD4-2, purified (Homo sapiens, NEDD4L (Q96PU5-1), UniProt Q96PU5-1); assay: BLI
WW4-HECT4-2 domain of NEDD4-2, purified, sequence (Q96PU5 541-975, one chain of several): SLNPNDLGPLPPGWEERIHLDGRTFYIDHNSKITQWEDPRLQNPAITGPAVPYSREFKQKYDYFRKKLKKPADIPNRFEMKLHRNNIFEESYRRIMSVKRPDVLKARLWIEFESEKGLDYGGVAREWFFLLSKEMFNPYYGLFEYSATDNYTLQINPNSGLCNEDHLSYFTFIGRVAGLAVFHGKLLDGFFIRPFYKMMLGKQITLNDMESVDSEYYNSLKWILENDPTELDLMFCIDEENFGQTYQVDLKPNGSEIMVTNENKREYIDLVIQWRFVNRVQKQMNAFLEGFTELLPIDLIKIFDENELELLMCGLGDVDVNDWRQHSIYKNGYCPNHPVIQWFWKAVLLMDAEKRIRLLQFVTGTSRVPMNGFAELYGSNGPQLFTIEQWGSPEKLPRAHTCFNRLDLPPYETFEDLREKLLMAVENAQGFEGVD

Venus-tagged NEDD4-1 HECT domain (HECT4-1-Ven), sequence (P46934 984-1318): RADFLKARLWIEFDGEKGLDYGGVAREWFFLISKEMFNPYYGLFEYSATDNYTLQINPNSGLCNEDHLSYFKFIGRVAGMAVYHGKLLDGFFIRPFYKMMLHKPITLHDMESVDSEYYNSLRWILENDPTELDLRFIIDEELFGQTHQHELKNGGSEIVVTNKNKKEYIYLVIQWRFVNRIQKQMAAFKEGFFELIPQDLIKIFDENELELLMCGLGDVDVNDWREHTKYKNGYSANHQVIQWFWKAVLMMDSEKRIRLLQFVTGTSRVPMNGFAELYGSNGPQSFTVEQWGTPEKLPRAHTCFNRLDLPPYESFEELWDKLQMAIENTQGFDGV
full-length NEDD4-2-Venus, sequence (Q96PU5 whole entry, looked up, change not shown): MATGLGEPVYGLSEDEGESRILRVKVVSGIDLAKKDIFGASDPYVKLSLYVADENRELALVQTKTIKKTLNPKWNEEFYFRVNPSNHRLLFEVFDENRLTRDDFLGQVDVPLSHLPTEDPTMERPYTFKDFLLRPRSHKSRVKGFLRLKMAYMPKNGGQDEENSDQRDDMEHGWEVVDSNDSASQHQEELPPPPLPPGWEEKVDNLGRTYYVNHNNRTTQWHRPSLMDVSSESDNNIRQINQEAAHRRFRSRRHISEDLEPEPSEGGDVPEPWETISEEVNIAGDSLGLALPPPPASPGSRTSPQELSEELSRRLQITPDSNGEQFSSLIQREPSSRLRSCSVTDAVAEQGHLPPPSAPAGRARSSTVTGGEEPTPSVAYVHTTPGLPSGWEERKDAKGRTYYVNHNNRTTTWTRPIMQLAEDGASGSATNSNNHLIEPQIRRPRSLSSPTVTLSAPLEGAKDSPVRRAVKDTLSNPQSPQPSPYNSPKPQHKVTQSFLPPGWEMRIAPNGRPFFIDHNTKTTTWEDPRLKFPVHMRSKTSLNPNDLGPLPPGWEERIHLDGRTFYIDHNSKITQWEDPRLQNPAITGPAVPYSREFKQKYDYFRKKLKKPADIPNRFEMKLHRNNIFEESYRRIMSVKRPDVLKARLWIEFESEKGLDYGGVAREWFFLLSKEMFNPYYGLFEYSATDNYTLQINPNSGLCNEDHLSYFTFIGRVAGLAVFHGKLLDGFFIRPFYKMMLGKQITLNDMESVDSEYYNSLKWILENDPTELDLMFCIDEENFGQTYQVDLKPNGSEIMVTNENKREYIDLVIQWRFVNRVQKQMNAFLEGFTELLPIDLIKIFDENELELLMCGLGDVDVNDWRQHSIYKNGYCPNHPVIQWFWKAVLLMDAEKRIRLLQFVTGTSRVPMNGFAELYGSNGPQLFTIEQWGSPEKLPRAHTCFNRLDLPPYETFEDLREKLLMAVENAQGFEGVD

Row | binding result [1] | binding result [2] | Kd [3] [nM] | Binder
1 | no binding | binds |  | Cer-nb.C11 (VHH) VHH: QVQLQESGGGLVQAGGSLRLSCAASGNISDVWYMGWYRQAPGKEREFVAGIAYGTSTYYADSVKGRFTISRDNAKNTVYLQMNSLKPEDTAVYYCAVIITRFVSYPRQHTYWGQGTQVTVSS
2 |  |  | 2 | nb.C11 (HIS-tagged, purified) (VHH) VHH: QVQLQESGGGLVQAGGSLRLSCAASGNISDVWYMGWYRQAPGKEREFVAGIAYGTSTYYADSVKGRFTISRDNAKNTVYLQMNSLKPEDTAVYYCAVIITRFVSYPRQHTYWGQGTQVTVSS
